Test results published in patent US20200299400A1 (published 2020).

T1: human CD73 on human cell lines (human, UniProt P21589 27-549)
T1 sequence (looked up): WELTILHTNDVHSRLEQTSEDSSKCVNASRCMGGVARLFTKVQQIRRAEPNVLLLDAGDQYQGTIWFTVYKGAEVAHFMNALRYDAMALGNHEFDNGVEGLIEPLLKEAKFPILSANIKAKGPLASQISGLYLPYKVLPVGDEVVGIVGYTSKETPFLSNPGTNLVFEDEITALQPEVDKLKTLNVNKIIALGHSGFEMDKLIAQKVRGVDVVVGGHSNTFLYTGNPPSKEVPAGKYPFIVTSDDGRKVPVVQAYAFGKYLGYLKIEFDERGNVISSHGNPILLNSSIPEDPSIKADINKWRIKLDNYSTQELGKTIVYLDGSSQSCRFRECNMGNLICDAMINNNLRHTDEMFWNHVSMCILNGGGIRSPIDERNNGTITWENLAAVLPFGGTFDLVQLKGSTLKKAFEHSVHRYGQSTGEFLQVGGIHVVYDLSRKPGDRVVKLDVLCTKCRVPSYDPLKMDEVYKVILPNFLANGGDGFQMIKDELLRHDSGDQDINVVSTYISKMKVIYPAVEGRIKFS


What was measured:
[1] = target: T1, human CD73 on human cell lines; assay: cell-based or functional assay
[2] = target: T2, hCD40-Fc (human, UniProt P25942 21-193); assay: SPR; dAb-Fc analyte on immobilized hCD40-Fc; avidity-influenced KDapparent
T2 construct: Immobilized on the sensor chip; construct not described; not shown: Fc part of hCD40-Fc not described
T2 sequence (P25942 21-193): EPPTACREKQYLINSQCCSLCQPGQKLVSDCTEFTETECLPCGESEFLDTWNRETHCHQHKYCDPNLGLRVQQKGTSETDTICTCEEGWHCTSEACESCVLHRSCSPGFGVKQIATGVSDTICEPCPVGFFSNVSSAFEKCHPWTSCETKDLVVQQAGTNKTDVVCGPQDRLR

Binder | % internalization, H2228 [1] [%] | Kd [2] [nM]
CD73.3-IgG1.1 (antibody, V domains shown) VH: EVQLVESGGGLVQPGRSLRLSCAASGFTFDDYAMHWVRQAPGKGLEWVSGISWKSGSIGYADSVKGRFTISRDNAKNSLYLQMNSLRAEDTVLYYCVKGYYVILTGLDYWGQGTLVTVSS VL: not shown | 47 | –
3h56-269-IgG1.3f (Fc fusion) EVQLLESGGGLVQPGGSLRLSCAASGFTFRDYEMWWVRQAPGKGLERVSAINPQGTRTYYADSVKGRFTISRDNSKNTLYLQMNSLRAEDTAVYYCAKLPFRFSDRGQGTLVTVSSASTEPKSCDKTHTCPPCPAPEAEGAPSVFLFPPKPKDTLMISRTPEVTCVVVDVSHEDPEVKFNWYVDGVEVHNAKTKPREEQYNSTYRVVSVLTVLHQDWLNGKEYKCKVSNKALPAPIEKTISKAKGQPREPQVYTLPPSREEMTKNQVSLTCLVKGFYPSDIAVEWESNGQPENNYKTTPPVLDSDGSFFLYSKLTVDKSRWQQGNVFSCSVMHEALHNHYTQKSLSLSPGK | – | < 1
3h56-269-IgG1.1f (Fc fusion) EVQLLESGGGLVQPGGSLRLSCAASGFTFRDYEMWWVRQAPGKGLERVSAINPQGTRTYYADSVKGRFTISRDNSKNTLYLQMNSLRAEDTAVYYCAKLPFRFSDRGQGTLVTVSSASTEPKSCDKTHTCPPCPAPEAEGAPSVFLFPPKPKDTLMISRTPEVTCVVVDVSHEDPEVKFNWYVDGVEVHNAKTKPREEQYNSTYRVVSVLTVLHQDWLNGKEYKCKVSNKALPSSIEKTISKAKGQPREPQVYTLPPSREEMTKNQVSLTCLVKGFYPSDIAVEWESNGQPENNYKTTPPVLDSDGSFFLYSKLTVDKSRWQQGNVFSCSVMHEALHNHYTQKSLSLSPGK | – | < 1
